Biological target: the molecule itself
Experiment: SEC

B1: Cowpea chlorotic mottle virus (CCMV) coat protein (natural protein)
chain: MSTVGTGKLTRAQRRAAARKNKRNTRVVQPVIVEPIASGQGKAIKAWTGYSVSKWTASCAAAEAKVTSAITISLPNELSSERNKQLKVGRVLLWLGLLPSVSGTVKSCVTETQTTAAASFQVALAVADNSKDVVAAMYPEAFKGITLEQLTADLTIYLYSSAALTEGDVIVHLEVEHVRPTFDDSFTPVY
Question: Does B1 bind?
Answer: Result: binds
